Laboratory results taken from patent publication US20090018093.
Read-outs that look alike come from different tables or passages of the source.

Test system: Immunoglobulin E (IgE) (Homo sapiens), P01854-1
Assay: filter

Sequence of Immunoglobulin E (IgE) (Homo sapiens), P01854-1 (P01854 other isoform, or with tags, fused parts or gaps): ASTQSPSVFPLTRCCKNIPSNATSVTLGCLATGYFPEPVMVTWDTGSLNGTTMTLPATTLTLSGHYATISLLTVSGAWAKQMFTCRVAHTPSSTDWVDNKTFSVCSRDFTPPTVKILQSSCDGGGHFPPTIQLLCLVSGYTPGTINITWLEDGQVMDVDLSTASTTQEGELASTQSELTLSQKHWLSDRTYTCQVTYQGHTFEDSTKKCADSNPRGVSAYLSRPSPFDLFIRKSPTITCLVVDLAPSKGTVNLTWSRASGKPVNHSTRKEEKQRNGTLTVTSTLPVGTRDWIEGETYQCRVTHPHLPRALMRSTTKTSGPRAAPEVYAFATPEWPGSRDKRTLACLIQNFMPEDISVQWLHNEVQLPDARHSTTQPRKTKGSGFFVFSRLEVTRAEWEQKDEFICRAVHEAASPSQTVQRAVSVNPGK

Sequence: AGCCUGGGGACCCAUGGGGGGCU [ARC1256]
- Kd (2'-OMe C,U and A10, other A,G deoxy, 3' idT [2'-OMe: 3,4,5,10,11,12,13,15,22,23, 2'-deoxy: 1,2,6,7,8,9,14,16,17,18,19,20,21, 24 = 3' inverted dT], dPBS Ca/Mg + BSA, RT): 0.4 nM

Sequence: AGCCUGGGGACCCAUGGGGGGCU [ARC1250]
- Kd (2'-OMe C,U and A1, other A,G deoxy, 3' idT [2'-OMe: 1,3,4,5,11,12,13,15,22,23, 2'-deoxy: 2,6,7,8,9,10,14,16,17,18,19,20,21, 24 = 3' inverted dT], dPBS Ca/Mg + BSA, RT): 11 nM

Sequence: GGGGCUACTTTATCCGTTCCTCCTAGTGGGTAGCCCC [ARC1388]
- Kd (2'-OMe at 1-8,33-37, 3' idT [2'-OMe: 1-8,33-37, 38 = 3' inverted dT], DPBS Mg/Ca, BSA): 4.4 nM

Sequence: AGCCUGGGGACCCAUGGGGGGCU [ARC1334]
- Kd (2'-OMe G2,G7,A10,A14,G17 and all C,U, rest 2'-deoxy, 3' idT [2'-OMe G2,C3,C4,U5,G7,A10,C11,C12,C13,A14,U15,G17,C22,U23, 3' inverted dT at 24], DPBS Mg/Ca, 0.1 mg/mL BSA, RT): 0.3 nM

Sequence: GGGGCTACTTTATCCGTTCCTCCTAGTGGGTAGCCCC [ARC1397]
- Kd (2'-OMe at 1-4,7,33-37, PS 14-15, 3' idT [2'-OMe at 1-4,7,33-37, PS linkage 14-15 (internal N = PS, not a base), 3' inverted dT cap (terminal N, left out)], DPBS Mg/Ca, BSA): 1.8 nM

Sequence: GGGGCTACTTTATCCGTTCCTCCTAGTGGGTAGCCCC [ARC1407]
- Kd (2'-OMe at 1-4,7,33-37, PS 24-25, 3' idT [2'-OMe at 1-4,7,33-37, PS 24-25, 3' idT cap after 37 (left out)], DPBS Mg/Ca, BSA): 1.8 nM

Sequence: AGCCUGGGNGACCCAUNNNGNNGNNGNCNUN [ARC2341]
- Kd (ARC1666 chemistry + PS 21-22,22-23, 3' idT, DPBS Mg/Ca, BSA, RT): 0.05 nM

Sequence: GGGCAACTTTATCCGTTCCTCTTAGTGGGTTGCCCC [DNA clone SEQ 139]
- Kd: 0.4 nM

Sequence: GGGGCTACTTTATCCGTTCCTCCTAGTGGGTAGCCCCT [ARC1268]
- Kd (2'-OMe at 4, 3' idT [4 (2'-OMe G), 38 (3' inverted dT)], DPBS Mg/Ca, BSA): 0.2 nM

Sequence: GGGGCTACTTTATCCGTTCCTCCTAGTGGGTAGCCCC [ARC1391]
- Kd (2'-OMe at 1-4,7,33-37, PS 8-9, 3' idT [2'-OMe at 1-4,7,33-37, PS linkage 8-9 (internal N = PS, not a base), 3' inverted dT cap (terminal N, left out)], DPBS Mg/Ca, BSA): 4.4 nM

Sequence: GGGAGAGGAGAGAACGUUCUACAAGCAGUUCUGGGGACCCAUGGGGGAAGUGCGCUGUCGAUCGAUCGAUCGAUG [ARC1992]
- Kd (dRmY: 2'-deoxy A,G, 2'-OMe C,U, error 8, dPBS Ca/Mg + BSA, RT): 10 nM

Sequence: AGCCUGGGGACCCAUGGGGGGCU [ARC1254]
- Kd (2'-OMe C,U and G8, other A,G deoxy, 3' idT [2'-OMe: 3,4,5,8,11,12,13,15,22,23, 2'-deoxy: 1,2,6,7,9,10,14,16,17,18,19,20,21, 24 = 3' inverted dT], dPBS Ca/Mg + BSA, RT): 24 nM

Sequence: GGGAGAGGAGAGAACGUUCUACGAUCUGGGCGAGCCAGUCUGACUGAGGAAGCGCUGUCGAUCGAUCGAUCGAUGAAGGGCG [rRmY clone SEQ 56]
- Kd (2'-OMe C,U, 2'-OH A,G, DPBS, 0.1 mg/mL tRNA, RT): 500 nM

Sequence: AGCCUGGGGACCCAUGGGGGGCU [ARC912]
- Kd (dRmY, 7-deaza-dG at G21 [7-deaza-dG: 21, 2'-OMe: 3-5,11-13,15,22,23, deoxy: all A,G], dPBS Ca/Mg + BSA, RT): 9 nM

Sequence: AGCCUGGGNGACCCAUNNNGNNNGNNGCUN [ARC2982]
- Kd (ARC1666 chemistry + PS 17-18, 3' idT, DPBS Mg/Ca, BSA, RT): 0.03 nM

Sequence: GGGGCTACUTTATCCGTTCCTCCTAGTGGGTAGCCCC [ARC1273]
- Kd (DNA with 2'-OMe U9, 3' idT [2'-OMe U9, 3' inverted dT38], dPBS Ca/Mg + BSA): 3 nM

Sequence: GGGGCTACTTTATCCGTTCCTCCTAGTGGGUAGCCCCN [ARC1295]
- Kd (2'-OMe U at 31, 3' idT, DPBS Mg/Ca, BSA): 3 nM

Sequence: GGGGCTACTTTATCCGTTCCTCCTAGTGGGTAGCCCCT [ARC1301]
- Kd (2'-OMe at 37, 3' idT [2'-OMe: 37, 38 = 3' inverted dT], DPBS Mg/Ca, BSA): 0.5 nM

Sequence: GGGAGAGGAGAGAACGUUCUACGAGCAGCCCUGGGGCCCGGAGGGGGAUGGUCGCUGUCGAUCGAUCGAUCGAUG [ARC1993]
- Kd (dRmY: 2'-deoxy A,G, 2'-OMe C,U, error 4, dPBS Ca/Mg + BSA, RT): 9 nM

Sequence: ANGCCUGGGNGACCCAUNNNGNNGNNGCUN [ARC2969]
- Kd (ARC1666 chemistry + PS 1-2, 3' idT, DPBS Mg/Ca, BSA, RT): 0.09 nM

Sequence: GGGGCTACTTTATCCGTTCCTCCTAGTGGGTAGCCCCT [ARC1302]
- Kd (DNA with 2'-OMe G1-G4,A7,G30,A32,G33, 3' idT [2'-OMe G1-G4, A7, G30, A32, G33, 3' inverted dT at 38], dPBS Ca/Mg + BSA): 19 nM

Sequence: GGGGCTACTTTATCCGTTCCTCCTAGTGGGTAGCCCCT [ARC1265]
- Kd (2'-OMe at 1, 3' idT [1=2'-OMe G, 38=3' inverted dT], DPBS Mg/Ca, BSA): 0.2 nM

Sequence: GGGGCTACTTUATCCGUUCCTCCTAGTGGGTAGCCCC [ARC1389]
- Kd (2'-OMe at 1-4,7,11,17,18,20,33-37, 3' idT [2'-OMe: 1-4,7,11,17,18,20,33-37, 38 = 3' inverted dT], DPBS Mg/Ca, BSA): 5.4 nM

Sequence: AGCCUGGGGACCCAUGGGGGGCU [ARC905]
- Kd (dRmY (2'-OMe C,U), 7-deaza-dG8 [7-deaza-dG at 8, 2'-OMe C3,C4,U5,C11,C12,C13,U15,C22,U23, A,G 2'-deoxy], DPBS Mg/Ca, 0.1 mg/mL BSA, RT): 9 nM

Sequence: GGAAUCAUACACAAGACGUCAGUAAGAUUGAGUGUAUGGUU [rRfY minimer SEQ 96]
- Kd (2'-F C and U, KD2 39.7 nM, 1xSHMCK + tRNA): 0.365 nM

Sequence: GGGGCTACTTTATCCGTTCCTCCTAGTGGGTAGCCCC [ARC1401]
- Kd (2'-OMe at 1-4,7,33-37, PS 18-19, 3' idT [2'-OMe at 1-4,7,33-37, PS linkage 18-19 (internal N = PS, not a base), 3' inverted dT cap (terminal N, left out)], DPBS Mg/Ca, BSA): 2 nM

Sequence: GGGGCTACTTTATCCGTTCCTCCTAGTGGGTAGCCCCT [ARC1410]
- Kd (DNA with 2'-OMe G1-G4,A7,G33-C37, PS between T27 and G28, 3' idT [2'-OMe G1-G4, A7, G33-C37, PS 27/28 (printed N = PS linkage, left out), 3' inverted dT at 38], dPBS Ca/Mg + BSA): 0.7 nM

Sequence: GGGGCTACTTTATCCGTTCCTCCTAGTGGGTAGCCCCT [ARC1299]
- Kd (2'-OMe at 35, 3' idT [2'-OMe: 35, 38 = 3' inverted dT], DPBS Mg/Ca, BSA): 0.5 nM

Sequence: AGCCUGGGGACCCAUGGGGGGCU [ARC2343]
- Kd (ARC1666 pattern without 3' idT [dI (written G) at 16,18,20, 2'-OMe 1-5,7,10-15,17,22,23, deoxy 6,8,9,16,18-21, PS 8/9,15/16,16/17,18/19,20/21, no 3' idT], dPBS + BSA, RT): 0.09 nM

Sequence: AGCCUGNGGNGACCCAUNNNGNNGNNGCUN [ARC2974]
- Kd (ARC1666 chemistry + PS 6-7, 3' idT, DPBS Mg/Ca, BSA, RT): 0.07 nM

Sequence: AGCCUGGGGACCCAUGGGGGG [ARC2345]
- Kd (ARC1666 pattern without 3' idT [dI (written G) at 16,18,20, 2'-OMe 1-5,7,10-15,17, deoxy 6,8,9,16,18-21, PS 8/9,15/16,16/17,18/19,20/21, no 3' idT], dPBS + BSA, RT): 29.3 nM

Sequence: AGCNCUGGGNGACCCAUNNNGNNGNNGCUN [ARC2971]
- Kd (ARC1666 chemistry + PS 3-4, 3' idT, DPBS Mg/Ca, BSA, RT): 0.06 nM

Sequence: GGAUCCGAGGGUGGGCAAUAGGCUCACAAGGGUCC [rRfY minimer SEQ 94]
- Kd (2'-F C and U, KD2 26.5 nM, 1xSHMCK + tRNA): 1.01 nM

Sequence: GGGGCUACTTUATCCGUUCCTCCTAGTGGGTAGCCCC [ARC1417]
- Kd (DNA with 2'-OMe 1-8,U11,U17,U18,C20,33-37, multiple PS, 3' idT [2'-OMe 1-8, U11, U17, U18, C20, 33-37, PS 9/10, 12/13, 14/15, 21/22, 24/25, 27/28, 30/31 (printed N = PS linkage, left out), 3' inverted dT at 38], dPBS Ca/Mg + BSA): 27 nM

Sequence: AGCCUGGGNGACCCAUNNNGNNGNNGCUN [ARC3268]
- Kd (ARC1666 chemistry with 2'-OMe G8,G9,I16, 3' idT, DPBS Mg/Ca, BSA, RT): 0.6 nM

Sequence: AGCCUGGGNGNACCCAUNNNGNNGNNGCUN [ARC2976]
- Kd (ARC1666 pattern plus PS between G9 and A10, 3' idT, dPBS Ca/Mg + BSA, RT): 0.3 nM

Sequence: AGCCUGGGNGACCCAUNNNGNNGNNGNCNUNN [ARC3269]
- Kd (ARC2342 chemistry with 2'-OMe G8, 3' idT, DPBS Mg/Ca, BSA, RT): 0.52 nM

Sequence: AGCCUGGGGACCCAUGGGGGGCU [ARC1261]
- Kd (2'-OMe C,U and G19, other A,G deoxy, 3' idT [2'-OMe: 3,4,5,11,12,13,15,19,22,23, 2'-deoxy: 1,2,6,7,8,9,10,14,16,17,18,20,21, 24 = 3' inverted dT], dPBS Ca/Mg + BSA, RT): 63 nM

Sequence: GGGAGAGGAGAGAACGUUCUACAGGCAGUUCUGGGGACCCAUGGGGGAAGUGCGCUGUCGAUCGAUCGAUCGAUG [ARC1991]
- Kd (dRmY: 2'-deoxy A,G, 2'-OMe C,U, error 2, dPBS Ca/Mg + 0.1 mg/mL BSA, RT, 87.7 nM with 1 mg/mL tRNA + ssDNA competitor (p280)): 2 nM

Sequence: GGGGCTACTTTATCCGTTCCTCCTAGTGGGTAGCCCCT [ARC1269]
- Kd (2'-OMe at 5, 3' idT [5 (2'-OMe C), 38 (3' inverted dT)], DPBS Mg/Ca, BSA): 0.3 nM

Sequence: GGGGCTACTTTATCCGTTCCTCCTAGTGGGTAGCCCCN [ARC1287]
- Kd (2'-OMe at 23, 3' idT, DPBS Mg/Ca, BSA): 1 nM

Sequence: AGCCUGGGGACCCAUGGGGGGCU [ARC907]
- Kd (dRmY (2'-OMe C,U), 7-deaza-dG16 [7-deaza-dG at 16, 2'-OMe C3,C4,U5,C11,C12,C13,U15,C22,U23, A,G 2'-deoxy], DPBS Mg/Ca, 0.1 mg/mL BSA, RT): 22 nM

Sequence: GGGCTACTTTATCCGTTCCTCCTAGTGGGTAGCCCT [ARC1306]
- Kd (2'-OMe stem block as printed in Table 18, 3' idT [2'-OMe: stem block (exact positions not given in the material), 36 = 3' inverted dT], DPBS Mg/Ca, BSA): 14 nM

Sequence: AGCCUGGGGACCCAUGGGGGGCU [ARC1566]
- Kd (ARC1335 pattern with dI20, 3' idT [dI20 (inosine, parent base G), 3' inverted dT24, rest ARC1335 pattern], dPBS Ca/Mg + BSA, RT): 0.1 nM

Sequence: AGCCUGGGGACCCAUGGGGGGCU [ARC908]
- Kd (dRmY, 7-deaza-dG at G17 [7-deaza-dG: 17, 2'-OMe: 3-5,11-13,15,22,23, deoxy: all A,G], dPBS Ca/Mg + BSA, RT): 3 nM
